Measurements published in patent US20110189154.
Positions count from the first letter of the chain named.

Molecular target: T1, Tsa1 (S. cerevisiae 2-Cys peroxyredoxin), P34760
T1 chain: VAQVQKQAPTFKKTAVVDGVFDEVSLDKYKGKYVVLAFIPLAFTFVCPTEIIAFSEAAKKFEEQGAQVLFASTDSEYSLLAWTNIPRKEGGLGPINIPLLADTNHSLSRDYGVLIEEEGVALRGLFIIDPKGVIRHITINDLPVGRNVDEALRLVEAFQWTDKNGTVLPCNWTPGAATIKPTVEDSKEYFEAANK

B1: Srx1^Cys106S (S. cerevisiae Srx1 with Cys106 changed to serine) (protein)
chain: MSLQSNSVKPTEIPLSEIRRPLAPVLDPQKIDAMVATMKGIPTASKTCSLEQAEAAASAGELPPVDVLGVRVKGQTLYYAFGGCHRLQAYDRRARETQNAAFPVRSRVLPATPRQIRMYLGSSLDIE
reduction of the Cys-SO2H form of Tsa1: the other cysteine mutants have no effect for Srx1^Cys106S

B2: Srx1^Cys48S (S. cerevisiae Srx1 with Cys48 changed to serine) (protein)
chain: B1 chain with C48S, S106C
reduction of the Cys-SO2H form of Tsa1: a minor effect for Srx1^Cys48S
